Assay results: publication doi:10.1101/2025.07.12.664526 (bioRxiv, 2025)

Tests used:
[1] = biological target: WalR T101M fused to SmBIT or LgBIT (split luciferase) (S. aureus ATCC29213) (UniProt Q7A8E1); test: split reporter
[2] = biological target: WalR, wild type, full-length, C-terminal 6xHis, phosphorylated by PknB^CYTO with ATP (S. aureus ATCC29213) (UniProt Q7A8E1); test: SEC-MALS
[3] = biological target: T1, WalR wild type fused to SmBIT or LgBIT (split luciferase) (S. aureus ATCC29213, UniProt Q7A8E1 1-233); test: split reporter
T1 sequence (looked up): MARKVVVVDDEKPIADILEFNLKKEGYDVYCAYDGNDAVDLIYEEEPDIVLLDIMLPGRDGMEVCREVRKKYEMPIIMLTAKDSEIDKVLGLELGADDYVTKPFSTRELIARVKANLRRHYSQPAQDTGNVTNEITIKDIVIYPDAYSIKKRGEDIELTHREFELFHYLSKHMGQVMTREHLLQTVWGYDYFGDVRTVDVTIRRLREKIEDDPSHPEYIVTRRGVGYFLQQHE

[4] = biological target: the molecule itself; test: split reporter

With “WalR T101M fused to SmBIT or LgBIT (split luciferase) (from UniProt Q7A8E1 1-233) (natural protein)” the peak luciferase signal in the wild type background [1] was 4340 RLU, the peak luciferase signal in the ΔpknB background [1] was 3650 RLU and the percent decrease of peak luciferase signal area against wild type WalR/WalR [1] was 65.2%.

Molecule “WalR, wild type, full-length, C-terminal 6xHis, phosphorylated by PknB^CYTO with ATP (from UniProt Q7A8E1 1-233) (natural protein)” has a stoichiometry N [2] of 2.

B1: WalR T101M fused to SmBIT or LgBIT (split luciferase) (natural protein, S. aureus ATCC29213, UniProt Q7A8E1 1-233, looked up)
chain: MARKVVVVDDEKPIADILEFNLKKEGYDVYCAYDGNDAVDLIYEEEPDIVLLDIMLPGRDGMEVCREVRKKYEMPIIMLTAKDSEIDKVLGLELGADDYVMKPFSTRELIARVKANLRRHYSQPAQDTGNVTNEITIKDIVIYPDAYSIKKRGEDIELTHREFELFHYLSKHMGQVMTREHLLQTVWGYDYFGDVRTVDVTIRRLREKIEDDPSHPEYIVTRRGVGYFLQQHE
With B1 the “percent decrease of peak area against wild type WalR/WalR” value [3] was 56.5%.

B2: WalR T101S fused to SmBIT or LgBIT (split luciferase) (natural protein, S. aureus ATCC29213, UniProt Q7A8E1 1-233, looked up)
chain: MARKVVVVDDEKPIADILEFNLKKEGYDVYCAYDGNDAVDLIYEEEPDIVLLDIMLPGRDGMEVCREVRKKYEMPIIMLTAKDSEIDKVLGLELGADDYVSKPFSTRELIARVKANLRRHYSQPAQDTGNVTNEITIKDIVIYPDAYSIKKRGEDIELTHREFELFHYLSKHMGQVMTREHLLQTVWGYDYFGDVRTVDVTIRRLREKIEDDPSHPEYIVTRRGVGYFLQQHE
In the case of B2, the “percent decrease of peak area against wild type WalR/WalR” value [4] is reported as 52.4%.

B3: WalR T101A fused to SmBIT or LgBIT (split luciferase) (natural protein, S. aureus ATCC29213, UniProt Q7A8E1 1-233, looked up)
chain: MARKVVVVDDEKPIADILEFNLKKEGYDVYCAYDGNDAVDLIYEEEPDIVLLDIMLPGRDGMEVCREVRKKYEMPIIMLTAKDSEIDKVLGLELGADDYVAKPFSTRELIARVKANLRRHYSQPAQDTGNVTNEITIKDIVIYPDAYSIKKRGEDIELTHREFELFHYLSKHMGQVMTREHLLQTVWGYDYFGDVRTVDVTIRRLREKIEDDPSHPEYIVTRRGVGYFLQQHE
For B3, the “percent decrease of peak area against wild type WalR/WalR” value [4] was 56.7%.
